Assay results taken from publication PMC8346469.

Target: homo-oligomeric archaeal chaperonin from Methanococcus maripaludis (MmCpn) (Methanococcus maripaludis)
Test: cryo-EM structure; MmCpn 4 uM mixed on ice with 32 uM ATP (1 hexadecamer to 8 ATP), frozen immediately; single-particle reconstruction with D8 symmetry (also C1), 3.9 Å; focused classification of rings and subunits

homo-oligomeric archaeal chaperonin from Methanococcus maripaludis (MmCpn) (natural protein)
stoichiometry N: 16 subunits
